{"source": "the supplement of paper PMC9112550", "about": "“Optimization of the antimicrobial peptide Bac7 by deep mutational scanning” (BMC Biology, 2022);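 also: peptides expressed intracellularly from a pBAD plasmid library in pooled LB shake-flask culture, induced with 0.3% L-arabinose, DNA abundance read by NGS, three biological replicates, DESeq2 with apeglm shrinkage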"}
{"tested_on": "Escherichia coli TOP10", "test": "shrunken log2 fold change of peptide-encoding DNA abundance (4.5 h post-induction vs induction); higher = less antimicrobial activity (less host growth inhibition)", "settings": "time post-induction: 4.5 h; library: site-saturation at positions 5, 18, 19, 20"}
{"sequence": "RRIRARPPRLPRPRPRPYFVPRP", "shrunken log2 fold change": -0.122}
{"sequence": "RRIRCRPPRLPRPRPRPIACPRP", "shrunken log2 fold change": -0.285}
{"sequence": "RRIRKRPPRLPRPRPRPCHKPRP", "shrunken log2 fold change": 0.0108}
{"sequence": "RRIRARPPRLPRPRPRPSTFPRP", "shrunken log2 fold change": 0.435}
{"sequence": "RRIRSRPPRLPRPRPRPEYKPRP", "shrunken log2 fold change": 0.0361}
{"sequence": "RRIRHRPPRLPRPRPRPEALPRP", "shrunken log2 fold change": -0.0062}
{"sequence": "RRIRLRPPRLPRPRPRPQECPRP", "shrunken log2 fold change": -0.00874}
{"sequence": "RRIRCRPPRLPRPRPRPNSAPRP", "shrunken log2 fold change": 0.0338}
{"sequence": "RRIRERPPRLPRPRPRPDYKPRP", "shrunken log2 fold change": -0.31}
{"sequence": "RRIRTRPPRLPRPRPRPCPWPRP", "shrunken log2 fold change": -0.21}
{"sequence": "RRIRGRPPRLPRPRPRPLTMPRP", "shrunken log2 fold change": 0.763}
{"sequence": "RRIRHRPPRLPRPRPRPKYRPRP", "shrunken log2 fold change": -0.138}
{"sequence": "RRIRARPPRLPRPRPRPSCFPRP", "shrunken log2 fold change": 0.0871}
{"sequence": "RRIRFRPPRLPRPRPRPDKRPRP", "shrunken log2 fold change": -0.0786}
{"sequence": "RRIRNRPPRLPRPRPRPWAIPRP", "shrunken log2 fold change": -0.179}
{"sequence": "RRIRIRPPRLPRPRPRPTPDPRP", "shrunken log2 fold change": -0.0173}
{"sequence": "RRIRTRPPRLPRPRPRPLFMPRP", "shrunken log2 fold change": -0.737}
{"sequence": "RRIRIRPPRLPRPRPRPRGMPRP", "shrunken log2 fold change": 0.0423}
{"sequence": "RRIRPRPPRLPRPRPRPSNPPRP", "shrunken log2 fold change": -0.0794}
{"sequence": "RRIRMRPPRLPRPRPRPCYTPRP", "shrunken log2 fold change": -0.0524}
{"sequence": "RRIRERPPRLPRPRPRPHQYPRP", "shrunken log2 fold change": -0.00989}
{"sequence": "RRIRPRPPRLPRPRPRPTLYPRP", "shrunken log2 fold change": 0.221}
{"sequence": "RRIRNRPPRLPRPRPRPLMGPRP", "shrunken log2 fold change": -0.254}
{"sequence": "RRIRFRPPRLPRPRPRPKSFPRP", "shrunken log2 fold change": -0.0388}
{"sequence": "RRIRRRPPRLPRPRPRPCFIPRP", "shrunken log2 fold change": -0.127}
{"sequence": "RRIRPRPPRLPRPRPRPEWFPRP", "shrunken log2 fold change": 0.341}
{"sequence": "RRIRYRPPRLPRPRPRPPIYPRP", "shrunken log2 fold change": -0.676}
{"sequence": "RRIRQRPPRLPRPRPRPKIKPRP", "shrunken log2 fold change": -0.273}
{"sequence": "RRIRTRPPRLPRPRPRPASDPRP", "shrunken log2 fold change": -0.141}
{"sequence": "RRIRERPPRLPRPRPRPRDHPRP", "shrunken log2 fold change": 0.162}
{"sequence": "RRIRYRPPRLPRPRPRPWLCPRP", "shrunken log2 fold change": -0.0909}
{"sequence": "RRIRIRPPRLPRPRPRPHRGPRP", "shrunken log2 fold change": -0.00841}
{"sequence": "RRIRFRPPRLPRPRPRPCINPRP", "shrunken log2 fold change": -0.0523}
{"sequence": "RRIRNRPPRLPRPRPRPKYKPRP", "shrunken log2 fold change": -0.726}
{"sequence": "RRIRKRPPRLPRPRPRPVPVPRP", "shrunken log2 fold change": 0.253}
{"sequence": "RRIRRRPPRLPRPRPRPMHGPRP", "shrunken log2 fold change": 0.144}
{"sequence": "RRIRWRPPRLPRPRPRPAEHPRP", "shrunken log2 fold change": -0.0393}
{"sequence": "RRIRFRPPRLPRPRPRPQLFPRP", "shrunken log2 fold change": 0.104}
{"sequence": "RRIRPRPPRLPRPRPRPPPLPRP", "shrunken log2 fold change": 0.699}
{"sequence": "RRIRKRPPRLPRPRPRPRLHPRP", "shrunken log2 fold change": 0.312}
{"sequence": "RRIRVRPPRLPRPRPRPCWPPRP", "shrunken log2 fold change": 0.237}
{"sequence": "RRIRCRPPRLPRPRPRPASMPRP", "shrunken log2 fold change": -0.412}
{"sequence": "RRIRWRPPRLPRPRPRPCNDPRP", "shrunken log2 fold change": -0.172}
{"sequence": "RRIRERPPRLPRPRPRPMGIPRP", "shrunken log2 fold change": -0.113}
{"sequence": "RRIRNRPPRLPRPRPRPKDSPRP", "shrunken log2 fold change": -0.0312}
{"sequence": "RRIRERPPRLPRPRPRPVAAPRP", "shrunken log2 fold change": 0.247}
{"sequence": "RRIRLRPPRLPRPRPRPLPAPRP", "shrunken log2 fold change": 0.585}
{"sequence": "RRIRRRPPRLPRPRPRPMCKPRP", "shrunken log2 fold change": 0.141}
{"sequence": "RRIRVRPPRLPRPRPRPVDIPRP", "shrunken log2 fold change": 0.0216}
{"sequence": "RRIRFRPPRLPRPRPRPGAKPRP", "shrunken log2 fold change": 0.118}
{"sequence": "RRIRQRPPRLPRPRPRPEKKPRP", "shrunken log2 fold change": -0.0138}
{"sequence": "RRIRNRPPRLPRPRPRPMHHPRP", "shrunken log2 fold change": -0.653}
{"sequence": "RRIRPRPPRLPRPRPRPMKYPRP", "shrunken log2 fold change": -0.157}
{"sequence": "RRIRKRPPRLPRPRPRPESEPRP", "shrunken log2 fold change": 2.93}
{"sequence": "RRIRRRPPRLPRPRPRPIECPRP", "shrunken log2 fold change": -0.00663}
{"sequence": "RRIRDRPPRLPRPRPRPTTIPRP", "shrunken log2 fold change": -0.121}
{"sequence": "RRIRWRPPRLPRPRPRPAMCPRP", "shrunken log2 fold change": 0.0884}
{"sequence": "RRIRFRPPRLPRPRPRPWRPPRP", "shrunken log2 fold change": 0.275}
{"sequence": "RRIRARPPRLPRPRPRPYWLPRP", "shrunken log2 fold change": -0.148}
{"sequence": "RRIRLRPPRLPRPRPRPGVRPRP", "shrunken log2 fold change": 0.256}
{"sequence": "RRIRKRPPRLPRPRPRPKNKPRP", "shrunken log2 fold change": 0.287}
{"sequence": "RRIRWRPPRLPRPRPRPTCIPRP", "shrunken log2 fold change": 0.248}
{"sequence": "RRIRYRPPRLPRPRPRPCCDPRP", "shrunken log2 fold change": -0.479}
{"sequence": "RRIRNRPPRLPRPRPRPTKIPRP", "shrunken log2 fold change": -0.245}
{"sequence": "RRIRARPPRLPRPRPRPQVRPRP", "shrunken log2 fold change": -0.0207}
{"sequence": "RRIRDRPPRLPRPRPRPGPCPRP", "shrunken log2 fold change": 0.244}
{"sequence": "RRIRHRPPRLPRPRPRPIAPPRP", "shrunken log2 fold change": 0.0449}
{"sequence": "RRIRTRPPRLPRPRPRPYWFPRP", "shrunken log2 fold change": -0.535}
{"sequence": "RRIRNRPPRLPRPRPRPCWMPRP", "shrunken log2 fold change": -0.18}
{"sequence": "RRIRFRPPRLPRPRPRPWQGPRP", "shrunken log2 fold change": 0.00425}
{"sequence": "RRIRDRPPRLPRPRPRPYTFPRP", "shrunken log2 fold change": -0.0443}
{"sequence": "RRIRVRPPRLPRPRPRPYADPRP", "shrunken log2 fold change": -0.543}
{"sequence": "RRIRVRPPRLPRPRPRPWLEPRP", "shrunken log2 fold change": 0.147}
{"sequence": "RRIRSRPPRLPRPRPRPYQPPRP", "shrunken log2 fold change": -0.161}
{"sequence": "RRIRHRPPRLPRPRPRPDFCPRP", "shrunken log2 fold change": -0.0801}
